2 substances from article PMC10078426 can be followed below.

Assay [1] concerns the target human IgG from serum (human) [IgG part: P01857]. As to the kind of experiment: SPR; preparation #1. On the technique in general: Surface plasmon resonance follows binding to a sensor surface in real time, without labels.
Assay [2] has the same target. Kind of assay: SPR; preparation #2.
Assay [3] shares this target. As to the kind of experiment: SPR.

As to “protein G: β-galactosidase fusion protein (from UniProt P19909)”, the Kd in assay [1] worked out at 33.4 nM; in assay [2] it was 41.8 nM. As to protein G:HRP (from UniProt P19909), the Kd in assay [3] was 18.9 nM.

Broadly, the Kd is the equilibrium constant for the complex coming apart.
